The target of the experiment is fluorescein-labeled 16-mer Pogo Ligase peptide (FAM-PL). The experiment in a line: fluorescence polarisation. In general terms: Polarisation of emitted light reports the rotation of a fluorescent probe.

Chain of recombinant (His)6-PCNA protein (proliferating cell nuclear antigen) (P12004 whole entry): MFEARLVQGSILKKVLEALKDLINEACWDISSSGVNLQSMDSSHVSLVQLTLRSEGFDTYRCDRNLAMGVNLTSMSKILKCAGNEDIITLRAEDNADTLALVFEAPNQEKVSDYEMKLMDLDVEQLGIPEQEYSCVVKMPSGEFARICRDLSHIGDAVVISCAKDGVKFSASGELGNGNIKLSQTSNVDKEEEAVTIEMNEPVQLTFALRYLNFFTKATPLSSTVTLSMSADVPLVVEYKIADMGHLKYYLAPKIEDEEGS

“recombinant (His)6-PCNA protein (proliferating cell nuclear antigen) (from UniProt P12004 1-261) (natural protein)” returned a percent of peptide bound (5 nM FAM-PL, 1 uM PCNA) above 80%.

Values taken from publication PMC6751697.
